Earlier results as cited in paper PMC2656815.

Biological target: CRF1 receptor N-domain (Homo sapiens) (UniProt P34998)
UniProt P34998, sequence (P34998 24-119): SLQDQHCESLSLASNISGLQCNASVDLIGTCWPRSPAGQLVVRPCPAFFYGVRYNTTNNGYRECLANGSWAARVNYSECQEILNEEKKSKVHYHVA

In the case of CRF (from UniProt P06850), the Kd is given as 50 nM.
